Substitutions are numbered along the chain they refer to. Where “and” joins values, the source holds several entries; their conditions need not be identical. Identical values can stand only once.
How the values were obtained:
[1] = target: T1, human TIGIT ECD expressed on the CHO-S cell surface (human, UniProt Q495A1 22-141); assay: flow cytometry blocking assay on CHO-S-hTIGIT cells, competitor muCD155-Fc; competitor muCD155-Fc; human IgG 3963H03-12
T1 construct: sections 3.13 and 4.1 say only stably expressing human TIGIT; also called CHO-S-hTIGIT; CHO-S-huTIGIT
T1 sequence: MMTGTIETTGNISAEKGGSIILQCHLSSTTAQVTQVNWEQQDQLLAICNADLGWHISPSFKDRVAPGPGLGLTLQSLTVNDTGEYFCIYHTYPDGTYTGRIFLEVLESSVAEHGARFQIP

[2] = target: T2, cynomolgus monkey TIGIT on primary T cells (cynomolgus monkey, UniProt A0A7N9I9V4 89-312); assay: flow cytometry on CD3+ T cells of cyno PBMCs
T2 construct: whole, on cells; also called cyno PBMCs; cynomolgus monkey spleen cells

[3] = target: T2, cynomolgus monkey TIGIT on primary T …; assay: target occupancy on CD3+ T cells of cynomolgus monkey spleen cells, unoccupied TIGIT detected with biotinylated 3963H03-12, flow cytometry, 6 donors
human TIGIT ECD T55A [4] = target: T3, human TIGIT ECD T55A (human, UniProt Q495A1 22-141); assay: SPR, antibody captured, mutant TIGIT ECD injected
T3 construct: point mutant expressed in E. coli
T3 chain: T1 sequence with T34A

human TIGIT ECD Q53A = target: T4, human TIGIT ECD Q53A (human, UniProt Q495A1 22-141); assay: SPR, antibody captured, mutant TIGIT ECD injected
T4 construct: point mutant expressed in E. coli
T4 chain: T1 sequence with Q32A

human TIGIT ECD P114G [5] = target: T5, human TIGIT ECD P114G (human, UniProt Q495A1 22-141); assay: SPR, antibody captured, mutant TIGIT ECD injected
T5 construct: point mutant expressed in E. coli
T5 chain: T1 sequence with P93G

human TIGIT ECD Y113A [6] = target: T6, human TIGIT ECD Y113A (human, UniProt Q495A1 22-141); assay: SPR, antibody captured, mutant TIGIT ECD injected
T6 construct: point mutant expressed in E. coli
T6 chain: T1 sequence with Y92A

[7] = target: T1, human TIGIT ECD expressed on the CHO-S …; assay: flow cytometry blocking assay on CHO-S-hTIGIT cells, competitor muCD112; competitor muCD112; human IgG 3963H03-12
[8] = target: T7, human TIGIT on cells (primary T cells, transfected HEK293 cells, Jurkat reporter cells, NK cells) (human, UniProt Q495A1 22-244); assay: cell-based or functional assay
T7 sequence: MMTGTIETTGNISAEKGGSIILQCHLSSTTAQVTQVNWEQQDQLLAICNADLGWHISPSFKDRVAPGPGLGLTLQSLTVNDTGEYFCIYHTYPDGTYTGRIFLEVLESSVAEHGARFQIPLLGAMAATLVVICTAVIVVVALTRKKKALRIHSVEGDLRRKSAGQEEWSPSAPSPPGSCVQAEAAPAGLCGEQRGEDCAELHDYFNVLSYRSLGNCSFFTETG

His-tagged human TIGIT = target: T8, His-tagged human TIGIT (human, UniProt Q495A1 22-141); assay: SPR Biacore, antibody captured on anti-human Fc, His-tagged TIGIT injected
T8 construct: soluble analyte in SPR
T8 sequence: T1 sequence

[9] = target: T9, His-tagged cynomolgus monkey TIGIT (cynomolgus monkey, UniProt A0A7N9I9V4 89-209); assay: as above
T9 construct: also called Cyno TIGIT; cynomolgus monkey TIGIT (Novoprotein cat. No. CP02)

human TIGIT ECD T55A [10] = target: T3, human TIGIT ECD T55A; assay: SPR, antibody captured on anti-human Fc, TIGIT ECD injected
human TIGIT ECD P114G [11] = target: T5, human TIGIT ECD P114G; assay: as above
human TIGIT ECD Y113A [12] = target: T6, human TIGIT ECD Y113A; assay: as above
human TIGIT ECD T51A = target: T10, human TIGIT ECD T51A (human, UniProt Q495A1 22-141); assay: as above
T10 construct: point mutant expressed in E. coli
T10 chain: T1 sequence with T30A

T9 sequence (A0A7N9I9V4 entry or part of it): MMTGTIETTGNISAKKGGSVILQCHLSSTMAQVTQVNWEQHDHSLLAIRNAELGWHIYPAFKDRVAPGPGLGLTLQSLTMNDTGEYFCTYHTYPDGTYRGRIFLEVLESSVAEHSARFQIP
T2 sequence (A0A7N9I9V4 entry or part of it): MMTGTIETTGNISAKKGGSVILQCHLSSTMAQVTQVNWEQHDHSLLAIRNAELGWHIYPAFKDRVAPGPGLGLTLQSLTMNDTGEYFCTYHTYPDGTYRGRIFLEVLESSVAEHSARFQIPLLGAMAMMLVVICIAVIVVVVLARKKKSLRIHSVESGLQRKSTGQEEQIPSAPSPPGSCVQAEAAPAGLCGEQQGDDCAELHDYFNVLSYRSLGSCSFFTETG

IC50 [1]: 0.499 µg/mL
EC50 [2]: 0.132 µg/mL and 0.8 nM
EC50 [3]: 0.0927 µg/mL and 0.6 nM
binding result (human TIGIT ECD T55A [4]): no binding (tested: 100 nM antigen)
binding result (human TIGIT ECD Q53A): no binding (tested: 100 nM antigen)
binding result (human TIGIT ECD P114G [5]): no binding (tested: 100 nM antigen)
binding result (human TIGIT ECD Y113A [6]): no binding (tested: 100 nM antigen)
IC50 [7]: 1.68 µg/mL
Kd (His-tagged human TIGIT): 4.05 nM
koff (His-tagged human TIGIT): 0.00067 s⁻¹
kon (His-tagged human TIGIT): 166000 M⁻¹ s⁻¹
Kd [9]: 0.829 nM and 0.83 nM
koff [9]: 0.000133 s⁻¹
kon [9]: 160000 M⁻¹ s⁻¹
ΔΔGmut (human TIGIT ECD T55A [10]): > 3 kcal/mol
ΔΔGmut (human TIGIT ECD P114G [11]): > 3 kcal/mol
ΔΔGmut (human TIGIT ECD Y113A [12]): > 3 kcal/mol
Kd (human TIGIT ECD T51A): 1.77 nM
ΔΔGmut (human TIGIT ECD T51A): -0.1 kcal/mol
B1: 3963H03-12 (antibody, human IgG1, kappa, V domains shown)
VH: QVQLVQSGSELKKPGASVKVSCKASGYTFTSYPMNWVRQAPGQGLEWMGWINTNTGNPTYAQGFTGRFVFSLDTSVSTAYLQISSLKAEDTAVYYCARVGGYSVDEYAFDVWGQGTLVTVSS
VL: DIQLTQSPSFLSASVGDRVTITCRASQGISSYLAWYQQKPGKAPKLLIYAASTLQSGVPSRFSGSGSGTEFTLTISSLQPEDFATYYCQQLSSYPTFGGGTKVEIKR
notes: also called anti-TIGIT H03-12; 39631H03-12
NK-mediated killing of P815.hCD155 cells (Caspase-3/7 signal) [8]: ≤ 2 fold

From patent publication US20220403022A1 (Merck KGaA, published 2022)
